Where a chain is given by its changes, count along the chain named.
T1: human-mouse chimeric PD-L1 on CHO cells (human-mouse chimeric, UniProt Q9EP73 19-290 (mouse entry))
T1 construct: expressed in CHO cells; also called chiPD-L1
T1 chain: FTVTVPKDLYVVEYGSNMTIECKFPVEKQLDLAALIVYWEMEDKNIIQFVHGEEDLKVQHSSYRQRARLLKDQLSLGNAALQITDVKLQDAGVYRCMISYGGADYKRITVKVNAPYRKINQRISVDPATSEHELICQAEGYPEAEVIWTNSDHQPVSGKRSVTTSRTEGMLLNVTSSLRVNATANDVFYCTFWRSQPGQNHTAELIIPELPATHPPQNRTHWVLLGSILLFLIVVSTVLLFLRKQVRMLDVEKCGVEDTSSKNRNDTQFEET

T2: Rhesus monkey PD-L1 on CHO cells (rhesus monkey, UniProt Q9NZQ7 19-290 (human entry))
T2 construct: Expressed in CHO cells for the cross-reactivity test; also called rmPD-L1; NP_001077358.1
T2 chain: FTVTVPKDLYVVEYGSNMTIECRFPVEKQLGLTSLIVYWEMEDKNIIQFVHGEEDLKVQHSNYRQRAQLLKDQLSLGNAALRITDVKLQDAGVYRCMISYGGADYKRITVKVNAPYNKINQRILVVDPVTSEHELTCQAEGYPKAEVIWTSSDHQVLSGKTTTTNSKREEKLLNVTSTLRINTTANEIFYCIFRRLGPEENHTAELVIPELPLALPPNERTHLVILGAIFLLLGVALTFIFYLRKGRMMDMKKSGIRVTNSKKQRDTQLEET

B1: 07-6A11 (antibody, V domains shown)
VH: DVQLVESGGGLVQPGGSRKLSCAASGFTFSSFGMHWVRQAPEKGLEWVAYISSGSNTIYYADTVKGRFTISRDNPKNTLFLQMTSLRSEDTAIYYCTRNGYDGWYAMDYWGQGTSVTVSS
VL: QIVLTQSPAIMSASPGEKVTMTCSASSSVSYIHWFQQKSGTSPKRWIYDTSKLASGVPARFSGRGSGTSYSLTISSMEAEDAATYYCQQWSTNPFTFGSGTKLEIK
notes: Murine monoclonal antibody from hybridoma, purified from ascites
B2: 17-7E4 (antibody, V domains shown)
VH: QVQLQQSGAELVRPGVSVKISCKGSGFKFTDYAIHWVKQSHAKSLEWIGVISIYYGEASYNQKFKDKATLTVDTSSSTAYMELARLTSEDSAIYYCAREDYYGSSSYFDYWGQGTALTVSS
VL: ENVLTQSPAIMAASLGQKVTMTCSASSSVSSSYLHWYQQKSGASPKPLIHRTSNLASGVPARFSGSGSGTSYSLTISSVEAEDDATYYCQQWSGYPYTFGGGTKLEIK
notes: as for B1
B3: 08-3F2 (antibody, V domains shown)
VH: DVQLQESGPDLVKPSQTLSLTCTVTGYSITSGYNWHWIRQFPGNKLEWMGYIHHSSITNYNPSLKSRISITRDTSKNQFFLQLSSVTTEDTATFYCAREGYDYDWFAYWGQGTLVTVSA
VL: DIVLAQSPATLSVTPGDSVSLSCRASQSISNNLHWYQQKSHESPRLLIKYASQSISGIPSRFSGSGSGTDFTLSINSVETEDFGMYFCQQSKSWPFTFGSGTRLEIK
notes: as for B1
B4: 23-2A6-mHvKv-IgG1 (antibody, V domains shown)
VH: QVQLKESGPGLVAPSQSLSITCTVSGFSLTSYDISWIRQPPGKGLEWLGAIWTGGGTNYNSAFMSRLSISKDNSKSQVFLKMNSLQTDDTAIYYCVRDPYYYAMDYWGQGTSVTVSS
VL: DIQMNQSPSSLSASLGDTITITCHASQNLNVWLSWYQQKPGNIPKLLIYKASNLHTGVPSRFSGSGSGTGFTLTISSLQPEDIATYYCQQGQSYPRTFGGGTKLEIK
B5: 24-1F4-mHvKv-IgG1 (antibody, V domains shown)
VH: EVQLRESGPSLVRPSQTLSLTCSVTGDSFTSGYWNWIRKFPGNELESMGYISYSGSTYYNPSLKSRISITRDTSKSQFYLQLSSVTAEDTATYYCARSEGWLLPFAYWGQGTLVTVSA
VL: DIVMSQSPSSLPVSVGEKVTMSCKSSQSLLYSSNQKNSLAWYQQKPGQSPKLLIYWASTRESGVPDRFTGSGSGTDFTLTISSVQAEDLSVYYCQQYYGYPFTFGSGTKLEIK
B6: 23-4A8-mHvKv-IgG1 (antibody, V domains shown)
VH: EVQLQESGPSLVKPSQTLSLTCSVTGDSITSGYWNWIRKFPGNKLEYMGYISYTGSTYYNPSLKSRFSITRDTSKNQYFLQLNSVTTEDTATYYCASYEGWLLPFAYWGQGTLVTVSA
VL: B5 VL with P12A, T20P, M21L, N37S, Q85K, S90A
B7: 33-10C9-mHvKv-IgG1 (antibody, V domains shown)
VH: QVQLQQPGAELVKPGSSVKLSCKASGYTFTTYYIYWVKQRPGQGLEWIGGINPYNGGTSFNEKFESKATLTVDISSSTAFMQLSSLTSEDSAVYYCTRDGNYVDYWGQGTTLTVSS
VL: QIVLTQSPAIMSASPGEKVTITCSASSTVSYVHWLQQKPDTSPKLWIYSTSNLASGVPARFSGSGSGTSYSLTISRMEAEDAATYYCQQRSSSPPTFGSGTKLEIK

Molecular target: T3, Mouse PD-L1 on CHO cells (mouse, UniProt Q9EP73 19-290)
T3 construct: Expressed in CHO cells for the cross-reactivity test; also called mPD-L1; murine PD-L1 protein
Assay: flow cytometry, CHO-mPD-L1 cells, Anti-mouse-IgGFc-FITC, antibody 1 µg/ml
From the text: (§1) The rhesus monkey PD-L1 protein coding sequence (rmPD-L1, SEQ ID NO: 54), the mouse PD-L1 protein coding sequence (mPD-L1, SEQ ID NO: 53), and the human-mouse chimeric PD-L1 (the extracellular region of the mouse PD-L1 protein was replaced with human protein fragments) protein coding sequence (chiPD-L1, SEQ ID NO: 55) were transferred into CHO cells for protein expression and used for the antibody cross-reactivity testing.
(§2) The test was detailed as follows: a 96-well cell culture plate was used, and the above-mentioned CHO cells expressing different PD-L1 proteins (25 μl, 2×10⁴ cells/well) was added to each well, and then 25 μl of the ascites purified anti-PD-L1 antibodies (1 μg/ml) were added to each well. The mixture was incubated at 4° C. for 30 minutes. The 96-well cell culture plate was centrifuged at 1200 rpm for 5 minutes and washed twice with PBS. Subsequently, 50 μl of anti-mouse IgG Fc-FITC at 1:100 dilution was added to each well, and was incubated at 4° C. for 30 minutes. Subsequently, the 96-well cell culture plate was centrifuged at 1200 rpm for 5 minutes, and washed once with PBS. Then 200 μl of PBS was added to each well, and flow cytometry analysis was performed.

% cells in the FITC-positive gate	Binder
4.56%	B1
1.1%	B2
7.37%	B3

Molecular target: T1, human-mouse chimeric PD-L1 on CHO cells
Assay: flow cytometry, CHO-chiPD-L1 cells, Anti-mouse-IgGFc-FITC, antibody 1 µg/ml
From the text: as §1, §2

% cells in the FITC-positive gate	Binder
77.4%	B1
67.8%	B2
88.3%	B3

Molecular target: T3, Mouse PD-L1 on CHO cells
Assay: flow cytometry, CHO-mPD-L1 cells, Anti-human IgG Fc-FITC, antibody 1 µg/ml
Target sequence in this assay (Q9EP73 19-290 limits assumed): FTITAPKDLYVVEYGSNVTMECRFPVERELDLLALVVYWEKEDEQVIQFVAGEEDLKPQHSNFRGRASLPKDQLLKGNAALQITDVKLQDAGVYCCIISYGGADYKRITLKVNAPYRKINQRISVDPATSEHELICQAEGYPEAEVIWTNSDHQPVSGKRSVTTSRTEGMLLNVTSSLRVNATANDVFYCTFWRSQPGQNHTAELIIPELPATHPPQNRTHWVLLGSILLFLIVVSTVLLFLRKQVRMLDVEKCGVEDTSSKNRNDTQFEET

% cells in the FITC-positive gate	Binder
0.886%	B4
15.5%	B5
3.07%	B6
0.556%	B7

Molecular target: T3, Mouse PD-L1 on CHO cells
Assay: flow cytometry on CHO cells expressing mPD-L1
From the text: as §1, §2

binding result	Binder
no binding (tested: 1 µg/ml)	B4
no binding (tested: 1 µg/ml)	B1
no binding (tested: 1 µg/ml)	B5
no binding (tested: 1 µg/ml)	B6
no binding (tested: 1 µg/ml)	B2
no binding (tested: 1 µg/ml)	B3
no binding (tested: 1 µg/ml)	B7

Molecular target: T2, Rhesus monkey PD-L1 on CHO cells
Assay: flow cytometry, CHO-rmPD-L1 cells, Anti-mouse-IgGFc-FITC, antibody 1 µg/ml
From the text: as §1, §2

% cells in the FITC-positive gate	Binder
51.4%	B1
64.9%	B2
60.9%	B3

Reference: patent publication US20220073621A1 (EUCURE BEIJING BIOPHARMA, published 2022)
